Data from publication PMC8870054.

Target: CLOBY biosensor (His6-mClover3-spacer with TEV site-Src SH4, unique and SH3 domains-spacer-mRuby3)
Assay: dynamic light scattering; hydrodynamic radius at variable concentrations up to 275 uM, 25 °C; apparent; dimer to monomers

“CLOBY biosensor (His6-mClover3-spacer with TEV site-Src SH4, unique and SH3 domains-spacer-mRuby3)” gave a Kd of 700 µM.
